7 substances from paper PMC9377591 can be followed below.

Test [1] has as its target V5-tagged Steppke (Step-V5-His) (Drosophila). The experiment in a line: co-IP; FLAG-tagged Jub constructs co-expressed with a V5-tagged partner in Drosophila S2 cells; lysis and washes in RIPA buffer (140 mM NaCl, 10 mM Tris-HCl pH 8.0, 1 mM EDTA, 1.0% Triton X-100, 0.1% SDS, 0.1% sodium deoxycholate); precipitated with anti-V5 agarose beads, blotted with anti-FLAG; band intensity normalised to full length Jub.

Test [2] addresses N2 domain of α-catenin, tagged with V5 (Drosophila) (UniProt P35220). The description is as above.
Sequence of UniProt P35220 (P35220 whole entry, the tested form may be a part): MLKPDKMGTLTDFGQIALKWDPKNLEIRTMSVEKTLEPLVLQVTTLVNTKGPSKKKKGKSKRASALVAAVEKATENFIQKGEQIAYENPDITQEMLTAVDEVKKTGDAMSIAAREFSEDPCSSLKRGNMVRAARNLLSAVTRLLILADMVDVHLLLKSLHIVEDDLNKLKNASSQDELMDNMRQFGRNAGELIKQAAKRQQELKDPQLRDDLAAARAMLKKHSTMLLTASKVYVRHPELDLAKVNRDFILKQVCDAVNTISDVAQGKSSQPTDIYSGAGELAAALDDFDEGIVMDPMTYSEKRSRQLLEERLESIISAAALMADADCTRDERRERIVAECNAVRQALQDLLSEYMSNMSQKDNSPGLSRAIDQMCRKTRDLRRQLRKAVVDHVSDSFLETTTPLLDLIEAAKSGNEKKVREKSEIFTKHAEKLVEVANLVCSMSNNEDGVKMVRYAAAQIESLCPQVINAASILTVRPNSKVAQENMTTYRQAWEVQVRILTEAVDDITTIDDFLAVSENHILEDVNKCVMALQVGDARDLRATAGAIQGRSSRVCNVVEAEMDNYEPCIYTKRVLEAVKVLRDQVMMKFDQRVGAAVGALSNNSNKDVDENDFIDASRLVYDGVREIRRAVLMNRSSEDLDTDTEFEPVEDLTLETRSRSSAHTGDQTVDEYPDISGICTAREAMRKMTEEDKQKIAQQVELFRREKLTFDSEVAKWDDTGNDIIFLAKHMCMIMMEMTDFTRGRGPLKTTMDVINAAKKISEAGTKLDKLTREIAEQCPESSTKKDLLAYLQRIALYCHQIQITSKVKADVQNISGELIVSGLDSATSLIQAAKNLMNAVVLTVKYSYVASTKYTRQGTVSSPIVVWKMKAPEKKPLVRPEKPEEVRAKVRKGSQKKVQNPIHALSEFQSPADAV

Substance “Jub preLIM+LIM1 (1-559 and 693-718), FLAG-tagged (from UniProt Q9VY77 1-559; Q9VY77 693-718) (domain or fragment)” displayed a co-precipitation relative to full length Jub (% of full length) in test [1] of 30.
The same measure, in the same setting: the value for “Jub preLIM+LIM2 (1-505, 571-623, and 693-718), FLAG-tagged (from UniProt Q9VY77 1-505; Q9VY77 571-623; Q9VY77 693-718) (domain or fragment)” was > 64; that for “Jub preLIM+LIM3 (1-505 and 631-718), FLAG-tagged (from UniProt Q9VY77 1-505; Q9VY77 631-718) (domain or fragment)” was 30.
For “Jub preLIM+LIM12 (1-623 and 693-718), FLAG-tagged (from UniProt Q9VY77 1-623; Q9VY77 693-718) (domain or fragment)”, the co-precipitation relative to full length Jub (% of full length) in test [1] is > 64. In addition, the co-immunoprecipitation relative to full length Jub (% of full length) in test [2] turned out to be 170.
“Jub preLIM+LIM13 (1-570 and 631-718), FLAG-tagged (from UniProt Q9VY77 1-570; Q9VY77 631-718) (domain or fragment)”: the co-precipitation relative to full length Jub (% of full length) in test [1] is > 64. This substance also yielded a co-immunoprecipitation relative to full length Jub (% of full length) in test [2] of 50.
For “Jub preLIM+LIM23 (1-505, 571-718), FLAG-tagged (from UniProt Q9VY77 1-505; Q9VY77 571-718) (domain or fragment)” the same measures were > 64 and 780.
In turn, “Jub-preLIM (1-505), FLAG-tagged (from UniProt Q9VY77 1-505) (domain or fragment)” gave a co-immunoprecipitation relative to full length Jub (% of full length) in test [2] of 24.
